Molecular target: trimeric stem polypeptides with H7 like residues at the beta2/beta3 loop, A-helix and lower part of the stem (FIG. 13A)
Assay: Binding-AlphaLISA, Expi293F supernatant, normalized to UFV172561

CR9114 (antibody), sequence (VH): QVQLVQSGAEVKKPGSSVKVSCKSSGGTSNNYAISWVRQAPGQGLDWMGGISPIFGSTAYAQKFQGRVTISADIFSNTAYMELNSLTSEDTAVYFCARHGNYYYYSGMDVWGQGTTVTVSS
CR9114 (antibody), sequence (VL): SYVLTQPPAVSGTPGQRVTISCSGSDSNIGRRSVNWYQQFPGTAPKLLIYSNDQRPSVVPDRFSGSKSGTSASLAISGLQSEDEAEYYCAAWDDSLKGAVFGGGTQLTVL

Substance: CR9114 (antibody)
- variation in antibody binding relative to reference UFV172561: 20%
